Biological target: T1, S. cerevisiae Atg40, SBP-tagged (S. cerevisiae, UniProt Q99325 1-256)
T1 construct: Atg40, ERphagy receptor of Saccharomyces cerevisiae; 'SBP-tagged full-length sjRop1, scAtg40': full-length is read as holding for both; also called scAtg40; not shown: SBP, C-terminal, kept
T1 sequence (looked up): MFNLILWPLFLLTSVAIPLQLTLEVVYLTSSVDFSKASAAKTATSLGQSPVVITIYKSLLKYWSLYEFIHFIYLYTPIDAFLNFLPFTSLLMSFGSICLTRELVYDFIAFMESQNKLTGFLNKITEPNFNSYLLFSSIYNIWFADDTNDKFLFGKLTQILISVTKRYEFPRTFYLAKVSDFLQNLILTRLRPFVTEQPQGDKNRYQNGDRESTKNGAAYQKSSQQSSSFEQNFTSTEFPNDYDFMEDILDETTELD
Assay: pull-down; SBP-tagged protein held on streptavidin beads, incubated with purified Atg8 for 1 h at 4 °C in 25 mM HEPES/KOH pH 7.4, 150 mM NaCl, 0.05% DDM; eluate on SDS-PAGE, Coomassie blue
Conditions: both partners purified

B1: S. cerevisiae Atg8, His10-tagged (natural protein, UniProt P38182 1-117, looked up)
chain: MKSTFKSEYPFEKRKAESERIADRFKNRIPVICEKAEKSDIPEIDKRKYLVPADLTVGQFVYVIRKRIMLPPEKAIFIFVNDTLPPTAALMSAIYQEHKDKDGFLYVTYSGENTFGR
notes: Atg8, ubiquitin-like autophagy protein of Saccharomyces cerevisiae; also called scAtg8; source: E. coli, purified (Ni-NTA, SEC on Superdex 75)
- binding result: binds
